Consider 2 molecules from paper PMC3376133, “Glutamine versus Ammonia Utilization in the NAD Synthetase Family” (PLoS ONE, 2012).

Series [1] has as its target T1, tt_NADS S-subunit (Thermus thermophilus, UniProt Q72HE9).
T1 construct: gene TT_C1538; S-subunit expressed alone in E. coli BL21/DE3, N-terminal His6-tag
T1 sequence (Q72HE9 1-281): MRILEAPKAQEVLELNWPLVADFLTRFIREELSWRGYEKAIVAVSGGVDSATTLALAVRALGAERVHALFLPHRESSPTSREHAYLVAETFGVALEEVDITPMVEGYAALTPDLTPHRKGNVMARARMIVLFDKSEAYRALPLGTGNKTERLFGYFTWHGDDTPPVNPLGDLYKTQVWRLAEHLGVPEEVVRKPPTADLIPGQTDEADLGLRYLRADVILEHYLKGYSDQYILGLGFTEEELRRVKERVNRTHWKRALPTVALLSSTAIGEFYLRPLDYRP
As to the kind of experiment: coupled alcohol dehydrogenase assay, NADH at […] nm. Particulars: ammonia as amide donor, ATP; constants possibly in Figure 3C. The class given is biochemical.

Substrate in series [2]: Nc1ncnc2c1ncn2[C@@H]1O[C@H](COP(=O)(O)OP(=O)([O-])OC[C@H]2O[C@@H]([n+]3cccc(C(=O)O)c3)[C@H](O)[C@@H]2O)[C@@H](O)[C@H]1O
In words: steady-state kinetics of NAD synthetase activity. The format is biochemical, Methanocaldococcus jannaschii. The note with it: ammonia 4 mM, saturating ATP (2 mM), 10 mM MgCl2, pH 7.5.

`Nc1ncnc2c1ncn2[C@@H]1O[C@H](COP(=O)(O)OP(=O)([O-])OC[C@H]2O[C@@H]([n+]3cccc(C(=O)O)c3)[C@H](O)[C@@H]2O)[C@@H](O)[C@H]1O` [NaAD]: in series [1], the “coupled alcohol dehydrogenase assay, NADH at 340 nm” value is on record as “the S-subunit alone ... had a comparable NADS activity only with ammonia”.

B1: mj_NADS (Methanocaldococcus jannaschii DSM 2661) (protein)
chain: MLWGESMEEIVNKITKFIREKVEEANANGVVVGLSGGIDSSVTAYLCVKALGKDKVLGLIMPEKNTNPKDVEHAKMVAENLGIKYIISDITDILKAFGAGGYVPTREFDKIADGNLKARIRMCILYYFANKYNLLVAGTSNKSEIYVGYGTKHGDIACDIRPIGNLFKTEVKKLAKYIGVPKEIIEKPPSAGLWEGQTDEEELDIKYETLDTILKLYEKGKTPEEIHKETNIPLETINYVFDLIKKNEHKRTLPPTPEI
notes: full-length single-domain NADS, N-terminal His6-tag, pET-derived vector, E. coli BL21/DE3
In the case of B1, in series [2], the Km was found to be 130 ± 20 µM and the turnover number (kcat) was 0.20 ± 0.01 s⁻¹.
